Laboratory results published in article PMC4125234.

Target: CMG2-Fc fusion protein (capillary morphogenesis protein 2 amino acids 1-225 fused to the Fc fragment of human IgG1) (human) (UniProt P58335)
Assay: BLI

Chain of UniProt P58335 (P58335 34-225): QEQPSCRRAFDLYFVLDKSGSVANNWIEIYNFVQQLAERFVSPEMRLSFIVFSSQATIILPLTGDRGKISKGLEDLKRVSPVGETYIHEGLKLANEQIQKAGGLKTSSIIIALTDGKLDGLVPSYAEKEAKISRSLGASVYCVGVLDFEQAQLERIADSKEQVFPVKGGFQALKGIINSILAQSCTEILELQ

For “protective antigen (PA) of anthrax toxin (natural protein)”, the Kd was 0.84 nM, the koff was 9.7e-06 s⁻¹ and the kon was 11500 M⁻¹ s⁻¹.
